Measured values: patent publication US20250109206A1 (CENTESSA PHARMACEUTICALS UK, published 2025)
Where a chain is given by its changes, count along the chain named. Names and notes keep the numbering of the source.

B1: CD3-IgG-001 (antibody, V domains shown)
VH: EVQLVESGGGLVQPGGSLRLSCAASGFTFNTYAMNWVRQAPGKGLEWVARIRSKYNNYATYYADSVKDRFTISRDDSQSILYLQMNSLKTEDTAVYYCVRHGNFGNSYVSWFAYWGQGTLVTVSS
VL: QAVVTQEPSLTVSPGGTVTLTCRSSTGAVTTSNYANWVQQKPDHLPRALIGGTNKRAPGTPARFSGSLLGDKAALTLSGVQPEDEAEYYCALWYSNLWVFGGGTKLTVL
B2: CD3-IgG-002 (antibody, V domains shown)
VH: B1 VH with A49G, D68G, Q78K, S79N, I80S, V99A
VL: B1 VL with T60V, L77I, V80A, E87I
B3: mouse SP34 IgG (antibody, V domains shown)
VH: B1 VH with G15K, R19K, S87N, V95M
VL: QAVVTQESALTTSPGETVTLTCRSSTGAVTTSNYANWVQEKPDHLFTGLIGGTNKRAPGVPARFSGSLIGDKAALTITGAQTEDEAIYFCALWYSNLWVFGGGTKLTVL
B4: Anti-PD-L1 Fab mut-03 (S104W) (Fab, V domains shown)
VH: QVQLVQSGAEVKKPGSSVKVSCKTSGDTFSTYAISWVRQAPGQGLEWMGGIIPIFGKAHYAQKFQGRVTITADESTSTAYMELSSLRSEDTAVYFCARKFHFVWGSPFGMDVWGQGTTVTVSS
VL: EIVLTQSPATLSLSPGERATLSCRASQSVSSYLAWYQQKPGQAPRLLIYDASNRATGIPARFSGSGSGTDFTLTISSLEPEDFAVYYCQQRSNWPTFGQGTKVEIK
notes: Fab format; VH variant with WT VL; constant domains of the Fab not specified; also called mut-3
B5: Anti-PD-L1 Fab mut-51 (S104R, G56Q, T31Q) (Fab, V domains shown)
VH: B4 VH with T31Q, G56Q, W104R
VL: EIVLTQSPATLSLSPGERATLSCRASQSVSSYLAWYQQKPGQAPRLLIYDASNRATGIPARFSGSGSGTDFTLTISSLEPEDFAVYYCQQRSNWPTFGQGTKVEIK
notes: Fab format; VH variant with WT VL; constant domains of the Fab not specified
B6: Anti-PD-L1 Fab mut-53 (S104R, T31Q) (Fab, V domains shown)
VH: B4 VH with T31Q, W104R
VL: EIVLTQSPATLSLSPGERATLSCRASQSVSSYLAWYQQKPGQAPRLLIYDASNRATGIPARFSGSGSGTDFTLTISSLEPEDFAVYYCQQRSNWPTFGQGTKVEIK
notes: as for B5
B7: Anti-PD-L1 Fab mut-43 (G56Q) (Fab, V domains shown)
VH: B4 VH with G56Q, W104S
VL: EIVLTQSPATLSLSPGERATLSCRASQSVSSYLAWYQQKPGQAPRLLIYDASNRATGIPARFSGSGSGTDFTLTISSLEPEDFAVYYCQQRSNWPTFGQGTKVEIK
notes: as for B5
B8: Anti-PD-L1 Fab mut-50 (Q62E) (Fab, V domains shown)
VH: B4 VH with Q62E, W104S
VL: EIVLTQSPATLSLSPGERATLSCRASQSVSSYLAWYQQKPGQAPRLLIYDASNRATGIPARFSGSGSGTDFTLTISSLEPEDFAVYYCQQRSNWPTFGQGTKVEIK
notes: as for B5
B9: Anti-PD-L1 Fab mut-39 (K57F) (Fab, V domains shown)
VH: B4 VH with K57F, W104S
VL: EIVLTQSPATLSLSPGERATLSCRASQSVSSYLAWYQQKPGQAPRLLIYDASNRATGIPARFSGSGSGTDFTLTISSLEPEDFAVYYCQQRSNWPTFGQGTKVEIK
notes: as for B5
B10: Anti-PD-L1 Fab mut-04 (I54K) (Fab, V domains shown)
VH: B4 VH with I54K, W104S
VL: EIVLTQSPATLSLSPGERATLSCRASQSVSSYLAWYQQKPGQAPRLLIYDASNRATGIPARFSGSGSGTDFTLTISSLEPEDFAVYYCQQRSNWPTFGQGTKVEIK
notes: Fab format; VH variant with WT VL; constant domains of the Fab not specified; also called mut-4
B11: Anti-PD-L1 Fab mut-52 (S104R, G56Q) (Fab, V domains shown)
VH: B4 VH with G56Q, W104R
VL: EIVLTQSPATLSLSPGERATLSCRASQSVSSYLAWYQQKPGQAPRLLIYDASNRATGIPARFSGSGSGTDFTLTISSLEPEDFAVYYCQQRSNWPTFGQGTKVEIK
notes: as for B5
B12: Anti-PD-L1 Fab mut-46 (I54R) (Fab, V domains shown)
VH: B4 VH with I54R, W104S
VL: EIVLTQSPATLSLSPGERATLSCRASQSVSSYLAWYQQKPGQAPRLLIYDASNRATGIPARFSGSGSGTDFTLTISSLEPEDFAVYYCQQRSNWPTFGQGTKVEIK
notes: as for B5
B13: Anti-PD-L1 Fab mut-47 (T31R) (Fab, V domains shown)
VH: B4 VH with T31R, W104S
VL: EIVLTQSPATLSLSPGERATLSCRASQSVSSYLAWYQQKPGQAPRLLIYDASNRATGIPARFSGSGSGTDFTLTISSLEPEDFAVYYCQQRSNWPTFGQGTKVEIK
notes: as for B5
B14: Anti-PD-L1 Fab mut-54 (G56Q, T31Q) (Fab, V domains shown)
VH: B4 VH with T31Q, G56Q, W104S
VL: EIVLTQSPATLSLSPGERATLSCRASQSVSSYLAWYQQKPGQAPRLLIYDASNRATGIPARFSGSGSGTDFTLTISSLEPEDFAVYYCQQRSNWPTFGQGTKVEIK
notes: as for B5
B15: Anti-PD-L1 Fab mut-22 (A33H) (Fab, V domains shown)
VH: B4 VH with A33H, W104S
VL: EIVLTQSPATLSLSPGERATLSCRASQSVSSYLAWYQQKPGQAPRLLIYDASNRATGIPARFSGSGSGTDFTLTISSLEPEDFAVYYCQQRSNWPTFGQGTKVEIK
notes: as for B5
B16: Anti-PD-L1 Fab mut-34 (K57M) (Fab, V domains shown)
VH: B4 VH with K57M, W104S
VL: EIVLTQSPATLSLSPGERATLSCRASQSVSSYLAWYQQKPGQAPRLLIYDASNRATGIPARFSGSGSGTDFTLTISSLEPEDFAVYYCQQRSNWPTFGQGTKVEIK
notes: as for B5
B17: Anti-PD-L1 Fab mut-14 (S104D) (Fab, V domains shown)
VH: B4 VH with W104D
VL: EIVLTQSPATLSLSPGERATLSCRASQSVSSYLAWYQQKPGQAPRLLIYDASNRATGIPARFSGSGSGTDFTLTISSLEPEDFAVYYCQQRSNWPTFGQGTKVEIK
notes: as for B5
B18: Anti-PD-L1 Fab mut-23 (G56H) (Fab, V domains shown)
VH: B4 VH with G56H, W104S
VL: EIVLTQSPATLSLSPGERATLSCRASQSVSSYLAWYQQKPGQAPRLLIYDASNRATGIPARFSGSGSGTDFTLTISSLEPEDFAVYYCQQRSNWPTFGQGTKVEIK
notes: as for B5
B19: Anti-PD-L1 Fab mut-44 (I52F) (Fab, V domains shown)
VH: B4 VH with I52F, W104S
VL: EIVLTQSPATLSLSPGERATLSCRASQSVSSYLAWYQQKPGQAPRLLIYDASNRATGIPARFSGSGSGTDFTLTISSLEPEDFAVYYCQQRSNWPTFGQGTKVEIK
notes: as for B5
B20: Anti-PD-L1 Fab mut-07 (I54W) (Fab, V domains shown)
VH: B4 VH with I54W, W104S
VL: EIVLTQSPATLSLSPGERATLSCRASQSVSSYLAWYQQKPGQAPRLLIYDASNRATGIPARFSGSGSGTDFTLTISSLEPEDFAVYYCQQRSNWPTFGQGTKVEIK
notes: Fab format; VH variant with WT VL; constant domains of the Fab not specified; also called mut-7
B21: Anti-PD-L1 Fab mut-20 (I54Y) (Fab, V domains shown)
VH: B4 VH with I54Y, W104S
VL: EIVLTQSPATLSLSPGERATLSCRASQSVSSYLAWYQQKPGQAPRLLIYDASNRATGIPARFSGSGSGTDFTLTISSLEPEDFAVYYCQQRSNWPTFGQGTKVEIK
notes: as for B5
B22: Anti-PD-L1 Fab mut-15 (K57W) (Fab, V domains shown)
VH: B4 VH with K57W, W104S
VL: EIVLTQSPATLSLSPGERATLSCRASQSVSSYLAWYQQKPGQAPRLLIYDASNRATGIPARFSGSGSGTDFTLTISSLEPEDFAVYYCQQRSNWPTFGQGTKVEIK
notes: as for B5
B23: Anti-PD-L1 Fab mut-08 (K57R) (Fab, V domains shown)
VH: B4 VH with K57R, W104S
VL: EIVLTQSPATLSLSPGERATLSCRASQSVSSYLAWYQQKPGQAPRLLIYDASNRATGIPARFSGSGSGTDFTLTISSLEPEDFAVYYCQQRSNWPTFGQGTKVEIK
notes: Fab format; VH variant with WT VL; constant domains of the Fab not specified; also called mut-8
B24: Anti-PD-L1 Fab mut-49 (G56N) (Fab, V domains shown)
VH: B4 VH with G56N, W104S
VL: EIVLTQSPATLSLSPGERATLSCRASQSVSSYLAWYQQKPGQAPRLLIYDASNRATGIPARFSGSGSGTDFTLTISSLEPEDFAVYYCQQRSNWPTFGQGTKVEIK
notes: as for B5
B25: Anti-PD-L1 Fab mut-48 (T31Q) (Fab, V domains shown)
VH: B4 VH with T31Q, W104S
VL: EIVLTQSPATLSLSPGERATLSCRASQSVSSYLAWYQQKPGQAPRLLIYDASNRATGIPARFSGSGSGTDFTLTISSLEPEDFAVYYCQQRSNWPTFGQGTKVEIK
notes: as for B5
B26: Anti-PD-L1 Fab mut-42 (I54Q) (Fab, V domains shown)
VH: B4 VH with I54Q, W104S
VL: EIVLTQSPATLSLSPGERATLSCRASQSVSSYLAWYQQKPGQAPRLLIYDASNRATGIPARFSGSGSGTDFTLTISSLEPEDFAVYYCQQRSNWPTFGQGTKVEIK
notes: as for B5
B27: Anti-PD-L1 Fab mut-06 (S104R) (Fab, V domains shown)
VH: B4 VH with W104R
VL: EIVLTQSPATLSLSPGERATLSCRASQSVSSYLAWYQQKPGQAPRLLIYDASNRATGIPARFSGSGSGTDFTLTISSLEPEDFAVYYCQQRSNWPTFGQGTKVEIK
notes: Fab format; VH variant with WT VL; constant domains of the Fab not specified; also called mut-6; Mut-6
B28: Anti-PD-L1 Fab mut-27 (K57D) (Fab, V domains shown)
VH: B4 VH with K57D, W104S
VL: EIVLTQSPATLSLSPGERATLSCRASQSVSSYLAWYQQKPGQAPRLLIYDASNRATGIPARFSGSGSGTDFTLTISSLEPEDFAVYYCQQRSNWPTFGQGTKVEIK
notes: as for B5
B29: Anti-PD-L1 Fab mut-28 (S104N) (Fab, V domains shown)
VH: B4 VH with W104N
VL: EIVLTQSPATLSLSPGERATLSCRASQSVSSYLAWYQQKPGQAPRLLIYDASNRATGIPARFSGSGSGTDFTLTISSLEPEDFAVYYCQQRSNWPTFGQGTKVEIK
notes: as for B5
B30: LB218 (intact) (bispecific antibody, human IgG1, kappa, lambda)
heavy: not shown
light: not shown
chain: SCPPCPAPEAAGAPSVFLFPPKPKDTLMISRTPEVTCVVVDVSHEDPEVKFNWYVDGVEVHNAKTKPREEQYNSTYRVVSVLTVLHQDWLNGKEYKCKVSNKALPAPIEKTISKAKGQPREPQVCTLPPSRDELTKNQVSLSCAVKGFYPSDIAVEWESNGQPENNYKTTPPVLDSDGSFFLVSKLTVDKSRWQQGNVFSCSVMHEALHNHYTQKSLSLSPGK
notes: Asymmetric LockBody, uncleaved; also called intact LB218
B31: LB218 after incubation with MMP12 (bispecific antibody)
heavy: not shown
light: not shown
chain: B30 chain
notes: Digest of LB218 with human MMP12; a mixture of products; also called MMP12 treated LB218; digested LB218
B32: LB213 after incubation with MMP12 (bispecific antibody)
heavy: not shown
light: not shown
chain: B30 chain
notes: Digest of LB213 with human MMP12; a mixture of products; also called MMP12 treated LB213; digested LB213
B33: LB213 (intact) (bispecific antibody, human IgG1, kappa, lambda)
heavy: not shown
light: not shown
chain: B30 chain
notes: Asymmetric LockBody, uncleaved; also called intact LB213

Assays:
[1] = biological target: human CD3 on Jurkat cells (human, UniProt P07766 23-207); assay: cell-based or functional assay
Chain of human CD3 on Jurkat cells (P07766 23-207): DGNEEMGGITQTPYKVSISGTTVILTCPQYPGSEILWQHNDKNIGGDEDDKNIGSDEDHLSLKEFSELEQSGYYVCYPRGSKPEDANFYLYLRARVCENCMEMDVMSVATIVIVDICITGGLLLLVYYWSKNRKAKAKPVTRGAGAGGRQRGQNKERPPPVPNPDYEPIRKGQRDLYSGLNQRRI

[2] = biological target: T1, Human PD-L1 (human, UniProt Q9NZQ7 19-127, limits assumed); assay: SPR, Fab
T1 construct: also called huPD-L1; hPD-L1

[3] = biological target: T2, Cyno PD-L1 (cynomolgus, UniProt Q9NZQ7 19-127 (human entry), limits assumed); assay: SPR, Fab
T2 construct: also called cynomolgus PD-L1
T2 chain: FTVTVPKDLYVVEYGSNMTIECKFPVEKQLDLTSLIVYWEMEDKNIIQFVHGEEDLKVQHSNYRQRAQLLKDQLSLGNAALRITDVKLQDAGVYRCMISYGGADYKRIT

[4] = biological target: T1, Human PD-L1; assay: ELISA on plate-coated human PD-L1, corrected absorbance 450-570 nm
Protocol: For ELISA binding assays, 384 well or 96 well plates were coated with […] and incubated overnight at 4° C., protected from light. Plates were washed twice with PBS/0.05% Tween 20 before blocking with block buffer (3% milk protein in PBS) for 1 hour at room temperature. Next, test agent or controls were loaded and incubated for 1 hour at room temperature. Plates were then washed three times with PBS/0.05% Tween 20. Finally, HRP conjugated secondary antibody, diluted 1/5,000 in block buffer, was added and incubated for 1 hour at room temperature. Plates were again washed three times with PBS/0.05% Tween before addition of TMB substrate and incubation for 6 minutes at room temperature. Subsequently, the reaction was stopped with stop solution. Absorbance was read at 450 nm and 570 nm. Absorbance at 570 nm was subtracted from absorbance at 450 nm for each plate.

[5] = biological target: T1, Human PD-L1; assay: ELISA on plate-coated human PD-L1, sample pre-incubated with MMP12 for 60 min
[6] = biological target: T1, Human PD-L1; assay: ELISA on plate-coated human PD-L1, sample pre-incubated with MMP12 for 5 min
[7] = biological target: T1, Human PD-L1; assay: ELISA on plate-coated human PD-L1, sample pre-incubated with MMP12 for 15 min
[8] = biological target: T1, Human PD-L1; assay: ELISA on plate-coated human PD-L1, sample pre-incubated with MMP12 for 30 min
[9] = biological target: T1, Human PD-L1; assay: ELISA on plate-coated human PD-L1, sample pre-incubated with MMP12 for 5 min; remark: listed apart in the source
[10] = biological target: T1, Human PD-L1; assay: ELISA on plate-coated human PD-L1, sample pre-incubated with MMP12 for 30 min; remark: listed apart in the source
[11] = biological target: T1, Human PD-L1; assay: ELISA on plate-coated human PD-L1, sample pre-incubated with MMP12 for 60 min; remark: listed apart in the source
[12] = biological target: T1, Human PD-L1; assay: ELISA on plate-coated human PD-L1, sample pre-incubated with MMP12 for 15 min; remark: listed apart in the source

| Binder | Kd [2] [nM] | Kd [3] [nM] | other results |
| --- | --- | --- | --- |
| B1 | – | – | EC50, CD3 activation signal in Jurkat reporter cell line (luciferase) [1]: 0.2 nM |
| B2 | – | – | EC50, CD3 activation signal in Jurkat reporter cell line (luciferase) [1]: 0.9 nM; fold difference of apparent EC50 against SP34 / Anti-CD3-IgG-001, Jurkat reporter [1]: ~5 fold |
| B3 | – | – | EC50, CD3 activation signal in Jurkat reporter cell line (luciferase) [1]: 0.2 nM |
| B4 | 1.1 | 13.6 | – |
| B5 | 0.0157 | 0.18 | – |
| B6 | 0.0217 | 0.288 | – |
| B7 | 0.204 | 2.73 | – |
| B8 | 0.124 | 4.82 | – |
| B9 | 1.54 | 3.96 | – |
| B10 | 0.857 | 10.8 | – |
| B11 | 0.0214 | 0.298 | – |
| B12 | 1.04 | 12.7 | – |
| B13 | 0.594 | 9.32 | – |
| B14 | 0.0722 | 0.631 | – |
| B15 | 1.84 | 20 | – |
| B16 | 3.58 | 5.82 | – |
| B17 | 3.36 | 29.3 | – |

| Binder | Kd [2] [nM] | Kd [3] [nM] | other results |
| --- | --- | --- | --- |
| B18 | 0.195 | 3.02 | – |
| B19 | 0.542 | 6.85 | – |
| B20 | 4.25 | 143 | – |
| B21 | 0.875 | 15.9 | – |
| B22 | 1.69 | 10.5 | – |
| B23 | 0.489 | 6.48 | – |
| B24 | 0.224 | 3.53 | – |
| B25 | 0.249 | 3.24 | – |
| B26 | 3.99 | 5.98 | – |
| B27 | 0.0857 | 2.86 | – |
| B28 | 5.58 | – | binding result [3]: no binding |
| B29 | 0.501 | 5.51 | – |
| B30 | – | – | EC50 (read off the curve) [4]: ~0.2 nM |
| B31 | – | – | EC50 (read off the curve) [5]: ~0.7 nM; EC50 (read off the curve) [6]: ~0.1 nM; EC50 (read off the curve) [7]: ~0.2 nM; EC50 (read off the curve) [8]: ~0.5 nM |
| B32 | – | – | EC50 (read off the curve) [9]: ~0.2 nM; EC50 (read off the curve) [10]: ~0.3 nM; EC50 (read off the curve) [11]: ~0.5 nM; EC50 (read off the curve) [12]: ~0.2 nM |
| B33 | – | – | EC50 (read off the curve) [4]: ~0.2 nM |
